# T1: PTP1B (reduced, active) (Homo sapiens, UniProt P18031)
# T1 construct: made in house; host or cells: E. coli BL21 (pET19b)
# T1 sequence (P18031 3-277 limits assumed): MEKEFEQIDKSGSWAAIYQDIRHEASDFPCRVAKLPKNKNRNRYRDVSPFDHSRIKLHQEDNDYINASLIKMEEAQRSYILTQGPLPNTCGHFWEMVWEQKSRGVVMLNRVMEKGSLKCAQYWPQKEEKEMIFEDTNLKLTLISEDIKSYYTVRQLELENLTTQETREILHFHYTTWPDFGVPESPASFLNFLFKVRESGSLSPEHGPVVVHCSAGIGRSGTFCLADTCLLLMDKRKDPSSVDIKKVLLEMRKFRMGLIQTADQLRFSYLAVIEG
# T2: PTP1B-OX (Homo sapiens, UniProt P18031)
# T2 construct: made in house; host or cells: E. coli BL21 (pET19b)
# T2 sequence (P18031 3-277): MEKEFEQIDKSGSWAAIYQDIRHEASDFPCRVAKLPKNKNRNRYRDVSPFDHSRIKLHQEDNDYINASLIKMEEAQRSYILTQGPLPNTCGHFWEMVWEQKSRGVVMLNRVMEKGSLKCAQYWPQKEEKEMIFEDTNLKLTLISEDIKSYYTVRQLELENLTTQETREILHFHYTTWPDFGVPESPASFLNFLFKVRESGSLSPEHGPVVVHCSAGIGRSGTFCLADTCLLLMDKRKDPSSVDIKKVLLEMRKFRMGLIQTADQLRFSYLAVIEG
# B1: scFv45: conformation-sensor scFv binding PTP1B-OX, SEQ ID NO: 26 and 78; expressed as intrabody (protein)
# scFv: MKKTAIAIAVALAGFATVAQAALTQPSSVSANPGGTVKITCSGSSSAYGYGWYQQKSPGSAPVTVIYNNNKRPSNIPSRFSGSKSGSTGTLTITGVQAEDEAVYFCGSEDSSTDAIFGAGTTLTVLGQSSRSSTVTLDESGGGLQAPGGALSLVCKASGFTFSSYDMGWIRQAPGKGLEYVAGITDNGRYASYGSAVDGRATISRDNGQSSVRLQLNNLRAEDTGTYYCARDDGSGWTGNSIDAWGHGTEVIVSSTSGQAGQHHHHHHGAYPYDVPDYAS
# B2: scFv57: scFv binding PTP1B-OX, SEQ ID NO: 27 and 90 (protein)
# scFv: MKKTAIAIAVALAGFATVAQAALTQPSSVSANPGAFNKITCSGSSSAYGYGWNQQKSPGSAPVTVIYNNNKRPSNIPSRFSGSKSGSTGTLTITGDQDEDEDFYFCGSEYSSTDAIFGAGTTLTVLGQSSRSSTVTLDESGGGLQAPGGALSLVCKASGFTFSSYDMGWIPQAPGKGLEYVAGITDNGIYASYGSAVDGRATISRDNRQSSVKLQLNNLKADDTGTYYCARDDGSGWTGNSIDAWGHGTEVIVSSTSGQAGQHHHHHHGAYPYDVPDYAS
# Experiments:
# PTP1B (reduced, active) = molecular target: T1, PTP1B (reduced, active); assay: Direct effect of scFvs/antibodies on PTP1B phosphatase activity (32P-pTyr-RCML substrate); assay type: biochemical; settings: 32P-labeled pTyr-RCML substrate, FIG. 1
# Protocol: (§1) Applicant's hypothesis was that scFvs that are able to bind to and stabilize the oxidized conformation of PTP1B in solution would inhibit reactivation by reducing agent, but have no direct inhibitory effect on phosphatase activity in assays in vitro. Activity was measured using ^32P-labeled pTyr-Reduced Carboxamidomethylated and Maleylated Lysozyme as substrate. Applicant established conditions in which wild type PTP1B could be reversibly oxidized in vitro. PTP1B was inactivated following addition of H2O2. […] Applicant validated this approach further, by testing the effects of expressing one of the scFvs (scFv45) as a single chain antibody fragment “intrabody” to PTP1B, using 293T cells as the expression system. This intrabody was expressed transiently and then tested for effects on insulin signaling, focusing initially on the tyrosine phosphorylation status of the beta-subunit of the insulin receptor and insulin receptor substrate (IRS-1).
# (§2) Reduced carboxamidomethylated and maleylated lysozyme (RCML) was labeled with ^32P using recombinant GST-FER kinase to stoichiometries up to 0.8 (mol ^32P incorporated/mol of protein). This ^32P-Labeled phospho-tyrosyl RCML was used as the substrate in the in-solution phosphatase assay for screening the conformation sensor scFvs. Recombinant PTP1B was reversibly oxidized and transiently inactivated with H2O2 (5× molar excess of the protein). […] Purified bacterially expressed scFvs (100× molar excess of PTP1B) were incubated with PTP after H2O2 treatment and its removal and the effect of individual scFv on stabilizing the reversibly oxidized conformation was assessed by the phosphatase assay under reducing condition.
# In order to screen the isolated scFvs for those that inhibit reactivation of PTP1B-OX by reducing agent, but have no direct inhibitory effect on phosphatase activity in assays in vitro, the effect of six scFvs (scFv20, scFv34, scFv45, scFv57, scFv64 and scFv106) on PTP1B activity was determined. PTP1B activity was measured using 32P-labeled pTyr-Reduced Carboxamidomethylated and Maleylated Lysozyme as substrate (FIGS. 1 and 2). Addition of the reducing agent TCEP alone had no substantial effect in PTP1B activity was assessed.
# [1] = test system: tyrosine phosphorylation of insulin receptor β (IRβ) and insulin receptor substrate-1 (IRS-1) in 293T cells; assay: Insulin signaling in 293T cells expressing intrabody: tyrosine phosphorylation of IRβ and IRS-1; assay type: cell-based
# Source text: In order to validate this approach further, Applicant tested the effects of expressing one of these (scFv45) as a single chain antibody fragment “intrabody” to PTP1B, using 293T cells as a convenient expression system. This intrabody was expressed transiently and then tested for effects on insulin signaling, focusing initially on the tyrosine phosphorylation status of the β-subunit of the insulin receptor and IRS-1 (FIG. 2). Initial indications are that for both substrates expression of the intrabody had no impact on the basal level of tyrosyl phosphorylation, but it enhanced and extended the time course of insulin-induced phosphorylation, consistent with our proposed mechanism of action.
# Intrabody scFv45 was transfected in 293T cells, serum starved and insulin stimulated to investigate the physiological relevance of this intrabody expression in mammalian cells in the context of PTP1B mediated regulation of insulin signaling (or insulin signaling mediated redox regulation of PTP1B activity). Insulin stimulated 293T cells with or without the intrabody were harvested in RIPA buffer (25 mM HEPES, pH 7.5, 150 mM NaCl, 0.25% Deoxychloate, 10% Glycerol, 25 mM NaF, 10 mM MgCl2, 1 mM EDTA, 1% TritonX-100, 0.5 mM PMSF, 10 mM Benzamidine, protease inhibitor cocktail, 1 mM sodium vanadate) and the cell lysates were examined for total tyrosine phosphosphorylation pattern using phospho-tyrosine specific antibodies (FIGS. 3 and 4).
# PTP1B-OX = molecular target: T2, PTP1B-OX; assay: Inhibition of reactivation of reversibly oxidized PTP1B by reducing agent (RCML phosphatase assay); assay type: biochemical; settings: PTP1B oxidized with H2O2, buffer exchange, TCEP added; FIG. 2
# Protocol: as §1, §2
# In a different experiment, conditions were established in which wild type PTP1B could be reversibly oxidized in vitro. […] Addition of the reducing agent alone had no substantial effect on PTP1B activity (FIGS. 1 and 2, “PTP1B”).
Molecule,"direct effect on PTP1B activity (PTP1B (reduced, active))","basal level of tyrosyl phosphorylation of insulin receptor β-subunit and IRS-1 ([1]; 293T cells expressing intrabody, no insulin)","tyrosine phosphorylation of insulin receptor β (IRβ) ([1]; 293T cells overexpressing intrabody, insulin stimulated, FIG. 3)","tyrosine phosphorylation of insulin receptor substrate-1 (IRS-1) ([1]; 293T cells overexpressing intrabody, insulin stimulated, FIG. 4)",inhibition of reactivation of PTP1B-OX by reducing agent (restoration of PTP1B activity after reversible oxidation) (PTP1B-OX)
B1,no direct inhibition of PTP activity,no impact,increased and prolonged tyrosine phosphorylation,increased and prolonged tyrosine phosphorylation,substantial inhibition of the restoration of PTP1B activity
B2,no direct inhibition of PTP activity,,,,substantial inhibition of the restoration of PTP1B activity

# — patent US9074002B2, “PTP1B inhibitors” (Cold Spring Harbor Laboratory, priority 2009, dated 2015)
